This note sets out measurements from US10793631B2, “Human PAC1 antibodies” (AMGEN INC., priority 2013, dated 2020).

Holding throughout (assay type): cell-based
Test [1] deals with T1, PAC1 (Homo sapiens, UniProt P41586).
T1 sequence (P41586 21-468): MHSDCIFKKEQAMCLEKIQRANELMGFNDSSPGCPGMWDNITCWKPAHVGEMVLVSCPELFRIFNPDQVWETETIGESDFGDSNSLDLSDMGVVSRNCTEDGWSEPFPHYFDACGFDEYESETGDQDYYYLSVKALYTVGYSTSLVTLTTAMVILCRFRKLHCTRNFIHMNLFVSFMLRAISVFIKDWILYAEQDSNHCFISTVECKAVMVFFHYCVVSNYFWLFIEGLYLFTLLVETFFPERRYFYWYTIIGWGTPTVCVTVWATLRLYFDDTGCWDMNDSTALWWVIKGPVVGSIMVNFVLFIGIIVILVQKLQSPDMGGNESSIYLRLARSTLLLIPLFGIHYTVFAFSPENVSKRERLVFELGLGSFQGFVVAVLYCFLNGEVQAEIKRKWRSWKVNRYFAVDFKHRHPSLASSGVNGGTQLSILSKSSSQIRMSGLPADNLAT
Put plainly: Activity and selectivity of PAC1 agonists on PAC1.

In test [2] the target is T2, VPAC1 (Homo sapiens, UniProt P32241).
T2 sequence (P32241 31-457): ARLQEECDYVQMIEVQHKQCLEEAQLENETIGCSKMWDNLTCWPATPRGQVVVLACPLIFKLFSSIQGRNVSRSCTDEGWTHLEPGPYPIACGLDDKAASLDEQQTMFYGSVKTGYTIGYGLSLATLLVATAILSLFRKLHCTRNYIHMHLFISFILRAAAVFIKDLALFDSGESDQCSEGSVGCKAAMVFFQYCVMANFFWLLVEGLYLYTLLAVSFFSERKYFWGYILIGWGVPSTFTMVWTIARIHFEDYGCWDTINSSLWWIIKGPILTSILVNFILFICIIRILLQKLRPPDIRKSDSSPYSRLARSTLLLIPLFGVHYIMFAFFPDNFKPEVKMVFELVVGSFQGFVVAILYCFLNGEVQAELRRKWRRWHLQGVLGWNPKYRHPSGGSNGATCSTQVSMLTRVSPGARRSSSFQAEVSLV
Put plainly: Activity and selectivity of PAC1 agonists on VPAC1. As to conditions: receptor agonist on VPAC1.

Test [3] addresses T3, VPAC2 (Homo sapiens, UniProt P41587).
T3 sequence (P41587 24-438): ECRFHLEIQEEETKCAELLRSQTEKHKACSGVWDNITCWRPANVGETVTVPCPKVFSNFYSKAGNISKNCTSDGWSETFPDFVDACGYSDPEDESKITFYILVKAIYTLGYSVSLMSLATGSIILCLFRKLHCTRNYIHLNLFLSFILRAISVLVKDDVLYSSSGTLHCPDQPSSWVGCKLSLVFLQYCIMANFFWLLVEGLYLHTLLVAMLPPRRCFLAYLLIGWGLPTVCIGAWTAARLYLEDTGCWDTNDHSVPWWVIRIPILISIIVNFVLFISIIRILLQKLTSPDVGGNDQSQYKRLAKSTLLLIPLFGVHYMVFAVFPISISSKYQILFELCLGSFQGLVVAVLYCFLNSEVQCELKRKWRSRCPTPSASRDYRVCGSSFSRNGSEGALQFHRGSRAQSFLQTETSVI
Put plainly: Activity and selectivity of PAC1 agonists on VPAC2. As to conditions: receptor agonist on VPAC2.

A value given as a limit tells only on which side of the number the result lay.

Consider “Maxadilan: 65 amino acid peptide originally isolated from the sand-fly; PAC1-selective agonist”, for which, in test [1] (PAC1 versus VPAC1 and VPAC2), the “agonist activity and selectivity” value is “highly-selective for PAC1 versus VPAC1 and VPAC2”. Besides, the EC50 was 0.06 nM in test [1] (receptor agonist on PAC1), greater than 1000 nM in test [2] and greater than 1000 nM in test [3].

What is called EC50 is the concentration needed to bring the measured effect to its halfway point. A low value points to a more potent agent.
